Test results as given in US20160137746A1, “METHODS FOR TREATING HIGH CARDIOVASCULAR RISK PATIENTS WITH HYPERCHOLESTEROLEMIA” (Sanofi Biotechnology, priority 2014, published 2016).

System: high cardiovascular risk patients with hypercholesterolemia
Assay: ODYSSEY LONG TERM: long-term safety and tolerability
[1] = Final analysis, Safety Analysis
[2] = Final analysis, Safety Analysis (N = 1550)
[3] = Safety population, 223 patients, pre-specified analysis
[4] = Safety population, 562 patients, pre-specified analysis
[5] = Safety population, treatment period, pre-specified analysis, 150 Q2W
[6] = TEAE period, pre-specified analysis
[7] = alirocumab patients with two consecutive LDL-C <25 mg/dL (n = 562), pre-specified analysis

Method: Safety parameters (adverse events [including adjudicated cardiovascular events], laboratory data, vital signs, and ECG) were assessed throughout the study.
Safety endpoints assessed in this trial were: cardiovascular events; allergic events; local tolerability at injection site; other adverse events (including hemolytic anemia); laboratory tests: urinalysis, hematology (red blood cell count, red blood cell distribution width (RDW), reticulocyte count, hemoglobin, hematocrit, platelets, white blood cell count with differential blood count), standard chemistry (sodium, potassium, chloride, bicarbonate, calcium, phosphorous, urea nitrogen, creatinine, uric acid, total protein, albumin, LDH, γ Glutamyl Transferase [γGT]), Vitamin E (alpha tocopherol) and other Fat Soluble Vitamins, cortisol (and reflexive ACTH levels, as needed, followed by ACTH stimulation test, as needed), Gonadal Hormone Assessments, Hepatitis C antibody, liver panel (ALT, AST, ALP, and total bilirubin), and CPK; vital signs including heart rate and blood pressure; and 12-lead ECG.
The safety population included all randomized patients who received at least one dose or part of a dose of the double-blind IMP.
Safety analyses were descriptive, performed on the safety population according to treatment actually received. The safety analysis focused on the TEAE period defined as the time from the first dose of double-blind injection up to 70 days after the last double-blind injection. TEAE which developed, worsened or became serious or PCSA occurring after the patient's first injection in the open-label extension study (LTS13643) were not considered in the TEAE period. TEAE period was truncated at the common study cut-off date.

## Alirocumab: human anti-PCSK9 antibody; HCVR SEQ ID NO:1, LCVR SEQ ID NO:6; CDRs SEQ ID NOs 2/3/4/7/8/10
[1]
  Alanine aminotransferase >3 times ULN, %: (1.8) %
  Alanine aminotransferase >3 times ULN, n/N: 28/1533
  Aspartate aminotransferase >3 times ULN, %: (1.4) %
  Aspartate aminotransferase >3 times ULN, n/N: 22/1533
  Creatine kinase >3 times ULN, %: (3.7) %
  Creatine kinase >3 times ULN, n/N: 56/1507
  Diabetes in patients with no history of diabetes, %: (1.8) %
  Diabetes in patients with no history of diabetes, n/N: 18/994
  Worsening of diabetes in patients with history of diabetes, %: (12.9) %
  Worsening of diabetes in patients with history of diabetes, n/N: 72/556
[2]
  Amnesia, % of patients: (0.3) %
  Amnesia, No. of patients: 5
  CHD death including unknown cause, % of patients: (0.3) %
  CHD death including unknown cause, No. of patients: 4
  Confusional state, % of patients: (0.3) %
  Confusional state, No. of patients: 4
  Congestive heart failure requiring hospitalization, % of patients: (0.6) %
  Congestive heart failure requiring hospitalization, No. of patients: 9
  Fatal and non-fatal ischemic stroke, % of patients: (0.6) %
  Fatal and non-fatal ischemic stroke, No. of patients: 9
  General allergic reaction events, % of patients: (10.1) %
  General allergic reaction events, No. of patients: 156
  Hemolytic anemia, No. of patients: 0
  Ischemia-driven coronary revascularization procedure, % of patients: (3.1) %
  Ischemia-driven coronary revascularization procedure, No. of patients: 48
  Local injection site reaction, % of patients: (5.9) %
  Local injection site reaction, No. of patients: 91
  Memory impairment, % of patients: (0.3) %
  Memory impairment, No. of patients: 4
  Myalgia, % of patients: (5.4) %
  Myalgia, No. of patients: 84
  Neurocognitive disorders, % of patients: (1.2) %
  Neurocognitive disorders, No. of patients: 18
  Neurological events, % of patients: (4.2) %
  Neurological events, No. of patients: 65
  Non-fatal MI, % of patients: (0.9) %
  Non-fatal MI, No. of patients: 14
  Ophthalmological events, % of patients: (2.9) %
  Ophthalmological events, No. of patients: 35
  Positively adjudicated cardiovascular events (including all cardiovascular AEs listed above), % of patients: (4.6) %
  Positively adjudicated cardiovascular events (including all cardiovascular AEs listed above), No. of patients: 72
  Post hoc analysis of a subgroup of adjudicated MACE, % of patients: (1.7) %
  Post hoc analysis of a subgroup of adjudicated MACE, No. of patients: 27
  TEAEs leading to death, % of patients: (0.5) %
  TEAEs leading to death, No. of patients: 8
  TEAEs leading to discontinuation, % of patients: (7.2) %
  TEAEs leading to discontinuation, No. of patients: 111
  TEAEs, % of patients: (81.0) %
  TEAEs, No. of patients: 1255
  Treatment-emergent SAEs, % of patients: (18.7) %
  Treatment-emergent SAEs, No. of patients: 290
[3]
  Time to the first calculated LDL-C value <15 mg/dL, mean (SD): 12.99 (12.43) weeks
  Time to the first calculated LDL-C value <15 mg/dL, median: 8.14 weeks
[4]
  Time to the first calculated LDL-C value <25 mg/dL, mean (SD): 11.03 (11.51) weeks
  Time to the first calculated LDL-C value <25 mg/dL, median: 4.86 weeks
[5]
  Patients with 2 consecutive calculated LDL-C value <15 mg/dL, %: (14.8%)
  Patients with 2 consecutive calculated LDL-C value <15 mg/dL, n/N: 223/1503
  Patients with 2 consecutive calculated LDL-C value <25 mg/dL, %: (37.4%)
  Patients with 2 consecutive calculated LDL-C value <25 mg/dL, n/N: 562/1503
[6]
  Cardiovascular death per adjudication: 5 (0.3%) n (%)
  Patients with decreased plasma vitamin E levels below the outer limit of normal (31 out of 1461): 2.1%
  SAEs: 255 (16.5%) n (%)
[7]
  AE of special interest: All adjudicated cardiovascular events, % of patients: 4.3%
  AE of special interest: General allergic reaction events, % of patients: 8.0%
  AE of special interest: Haemolytic anaemia, % (n) of patients: 0
  AE of special interest: Neurocognitive disorders, % of patients: 0.7%
  AE of special interest: Neurological events, % of patients: 3.2%
  AE of special interest: Ophthalmological events, % of patients: 2.5%
  AE of special interest: Treament-emergent local injection site reactions, % of patients: 6.2%
  Neurocognitive AE: Amnesia, % (n) of patients: 0
  Neurocognitive AE: Any neurocognitive disorder, % of patients: 0.7%
  Neurocognitive AE: Confusion postoperative, % (n) of patients: 0
  Neurocognitive AE: Confusional state, % of patients: 0.2% (1)
  Neurocognitive AE: Dementia, % of patients: 0.2% (1)
  Neurocognitive AE: Disorientation, % (n) of patients: 0
  Neurocognitive AE: Disturbance in attention, % (n) of patients: 0
  Neurocognitive AE: Frontotemporal dementia, % of patients: 0.2% (1)
  Neurocognitive AE: Memory impairment, % (n) of patients: 0
  Neurocognitive AE: Transient global amnesia, % (n) of patients: 0
  TEAE ALT increase, % of patients: 0.7%
  TEAE AST increase, % of patients: 0%
  TEAE Angina pectoris, % of patients: 1.8% (10)
  TEAE Arthralgia, % of patients: 3.2% (18)
  TEAE Atrial fibrillation, % of patients: 1.6% (9)
  TEAE Back pain, % of patients: 5.0% (28)
  TEAE Bronchitis, % of patients: 5.2% (29)
  TEAE CPK increase, % of patients: 0.2%
  TEAE Cellulitis, % of patients: 1.6% (9)
  TEAE Confusion, % of patients: 1.2% (7)
  TEAE Constipation, % of patients: 1.6% (9)
  TEAE Cough, % of patients: 2.0% (11)
  TEAE Depression, % of patients: 1.4% (8)
  TEAE Diarrhea, % of patients: 3.9% (22)
  TEAE Dizziness, % of patients: 1.4% (8)
  TEAE Fall, % of patients: 1.6% (9)
  TEAE Fatigue, % of patients: 3.0% (17)
  TEAE Gastoenteritis, % of patients: 0.7% (4)
  TEAE Headache, % of patients: 1.8% (10)
  TEAE Hypertension, % of patients: 2.0% (11)
  TEAE Influenza, % of patients: 4.1% (23)
  TEAE Injection site reaction, % of patients: 3.6% (20)
  TEAE Lower respiratory tract infection (LRTI), % of patients: 2.8% (16)
  TEAE Muscle spasms, % of patients: 2.8% (16)
  TEAE Musculoskeletal pain, % of patients: 1.4% (8)
  TEAE Myalgia, % of patients: 3.0% (17)
  TEAE Nasopharyngitis, % of patients: 10.0% (56)
  TEAE Nausea, % of patients: 0.9% (5)
  TEAE Non-cardiac chest pain, % of patients: 2.0% (11)
  TEAE Osteoarthritis, % of patients: 2.1% (12)
  TEAE Pain in extremity, % of patients: 2.1% (12)
  TEAE Rhinitis, % of patients: 1.2% (7)
  TEAE Sinusitis, % of patients: 3.0% (17)
  TEAE Type-2 diabetes mellitus, % of patients: 2.5% (14)
  TEAE leading to death, % of patients: 0.5% (3)
  TEAEs by System-Organ-Class: Blood and lymphatic system disorders, % of patients: 1.6% (9)
  TEAEs by System-Organ-Class: Cardiac disorders, % of patients: 7.5% (42)
  TEAEs by System-Organ-Class: Ear and labyrinth disorders, % of patients: 1.2% (7)
  TEAEs by System-Organ-Class: Eye disorders, % of patients: 6.4% (36)
  TEAEs by System-Organ-Class: Gastrointestinal disorders, % of patients: 13.7% (77)
  TEAEs by System-Organ-Class: General disorders and administration site conditions, % of patients: 11.0% (62)
  TEAEs by System-Organ-Class: Injury, poisoning, and procedural complications, % of patients: 10.5% (59)
